Km and Vmax data for three proteins are collected here from PMC3766608, “Thermal Stability of Glucokinases in Thermoanaerobacter tengcongensis” (BioMed Research International, 2013).

Holding throughout (assay type): biochemical, Caldanaerobacter subterraneus
Substrate in data set [1]: Nc1ncnc2c1ncn2[C@@H]1O[C@H](COP(=O)(O)OP(=O)(O)OP(=O)(O)O)[C@@H](O)[C@H]1O
In words: purified protein. The conditions noted are these: glucose as co-substrate, Mg2+, Tris-HCl pH 8.0, 75 °C.

Substrate in the data set “coupled enzyme assay”: Nc1ncnc2c1ncn2[C@@H]1O[C@H](COP(=O)(O)OP(=O)(O)OP(=O)(O)O)[C@@H](O)[C@H]1O
In words: coupled enzyme assay. The conditions noted are these: Mg2+, Tris-HCl, sugar co-substrate not stated for this constant (pH optimum 7.5, T opt 70 °C). An excerpt: coupled enzyme assay on TTE2418 (glu/man-NacK)

Substrate in data set [2]: Nc1ncnc2c1ncn2[C@@H]1O[C@H](COP(=O)(O)OP(=O)(O)O)[C@@H](O)[C@H]1O
Nature of the data set: purified protein. The conditions noted are these: glucose as co-substrate, Mg2+, Tris-HCl (pH optimum 8.0, T opt 80 °C).

B1: TTE0090 (ATP-GLK) (Caldanaerobacter subterraneus subsp. tengcongensis MB4) (protein)
chain: MKKFLCGVDLGGTKISTGIVDENGNIIKSIKIPTMAEKGPDVVIERIEESIYQVLKDTGLEMSNLKGIGIGSPGPLNAKKGIVISPPNLPHWSNVPIVEILSKRLGIEVRLENDANAAAIGEHLFGSGRGVDNFVYITVSTGIGGGVIIEGKLYSGENSNAAEIGHHTINFDGPRCNCGNYGCFEAYASGTAIARFAREGIEKGIKTKIKELAGEGEVKAEHVFEAAKLGDEFAKELVEKEAFYLGVGIANIMAFYNPRKIAIGGGVSAQWDMLYEKMMETVRKKALKPNAEVCEVVKAQLGENIGVLGAAALLL
notes: recombinant, His-tagged
On to B1, for which, in “purified protein [1]”, the Km worked out at 2600 µM and the Vmax is listed as 100/ND.

B2: TTE2418 (glu/man-NacK) (Caldanaerobacter subterraneus subsp. tengcongensis MB4) (protein)
chain: MKVIGVDIGGTKILGGLIDERGNLLEETLVYTKAHLGREKILENLFIAIDKLIDKDVKGIGIGSAGRINFKEGIVEYATDNLPGWTGCNLKQLLEDRYKIPVIADNDVNAAVIGEIWQGAGRGYKDIVMIAIGTGVGGAIVYNGEVIRGGSWSAGEIGHMILYPKGRQCNCGQRGCLEQYVSGTAIARTYSEVSKEKKIAGAEEVFLLAEKGDKMALEIVNDFVNSLSIAILSLKNLLDPEIFIIGGGVIGAKRVWWDKLKKTLENRASITPAQLENKATMVGAAKLIIDYLSKNN
notes: recombinant
B2: in “coupled enzyme assay”, the Km came to 1900 µM and the Vmax is 51/ND.

B3: TTE1961 (ADP-GLK) (Caldanaerobacter subterraneus subsp. tengcongensis MB4) (protein)
chain: MRIGVDLGGTNIAVGLVEEDGKIIATGSRPTKPERGYEAIARDIAELSFELLQRMGISVKDVKSMGIGVPGVADNEKGIVIRAVNLFWTKVPLAKEIRKYIDLPIYMENDANVAALAEATFGAGRGSKSSVTITLGTGVGSGFILDGKIYSGAHHFAPEIGHMVIGDNGIRCNCGKIGCFETYASATALIREGKKAAKRNPNTLILKFANGDIEGITAKNVIDAAKQYDEEALKIFEEYVKYLAVGIVNIINLFDPEVIILGGGVANAGDFLLKPLKKEVAENILFKELPYADIRKAELGNDAGIIGAAILS
notes: recombinant, His-tagged
Turning to B3, in the data set “purified protein [2]”, the Km was 900 µM.
